From article PMC7885793 (Biochemistry, 2019)

Biological target: T1, PLCβ3-Δ892 ΔXY2 (Homo sapiens, UniProt Q01970 10-892, ΔXY2 (residues 471–584))
T1 sequence (looked up): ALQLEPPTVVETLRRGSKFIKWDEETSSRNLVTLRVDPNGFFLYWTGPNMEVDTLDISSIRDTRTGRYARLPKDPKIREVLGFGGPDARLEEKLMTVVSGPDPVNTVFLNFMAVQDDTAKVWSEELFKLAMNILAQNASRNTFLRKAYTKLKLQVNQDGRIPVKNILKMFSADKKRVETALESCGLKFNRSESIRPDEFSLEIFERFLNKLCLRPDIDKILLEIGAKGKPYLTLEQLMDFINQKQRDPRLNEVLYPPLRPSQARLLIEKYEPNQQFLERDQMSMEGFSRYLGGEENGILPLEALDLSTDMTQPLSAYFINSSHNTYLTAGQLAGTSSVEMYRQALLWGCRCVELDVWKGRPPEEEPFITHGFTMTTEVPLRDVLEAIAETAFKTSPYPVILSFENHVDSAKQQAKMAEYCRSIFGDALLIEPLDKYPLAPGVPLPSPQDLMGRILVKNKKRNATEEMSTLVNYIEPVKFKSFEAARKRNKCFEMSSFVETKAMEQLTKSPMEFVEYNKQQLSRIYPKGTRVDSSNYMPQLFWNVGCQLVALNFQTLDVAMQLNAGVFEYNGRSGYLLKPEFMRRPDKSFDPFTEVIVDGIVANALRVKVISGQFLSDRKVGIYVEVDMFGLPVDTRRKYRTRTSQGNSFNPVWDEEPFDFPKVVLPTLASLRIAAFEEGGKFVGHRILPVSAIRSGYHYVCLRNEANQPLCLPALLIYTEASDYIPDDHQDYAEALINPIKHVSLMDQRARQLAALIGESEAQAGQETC
Assay: cell-based or functional assay

B1: Activated Gαq (Gαq·GDP-ALF4^−) (natural protein, murine, UniProt P21279 7-359, looked up)
chain: MACCLSEEAKEARRINDEIERQLRRDKRDARRELKLLLLGTGESGKSTFIKQMRIIHGSGYSDEDKRGFTKLVYQNIFTAMQAMIRAMDTLKIPYKYEHNKAHAQLVREVDVEKVSAFENPYVDAIKSLWNDPGIQECYDRRREYQLSDSTKYYLNDLDRVADPSYLPTQQDVLRVRVPTTGIIEYPFDLQSVIFRMVDVGGQRSERRKWIHCFENVTSIMFLVALSEYDQVLVESDNENRMEESKALFRTIITYPWFQNSSVILFLNKKDLLEEKIMYSHLVDYFPEYDGPQRDAQAAREFILKMFVDLNPDSDKIIYSHFTCATDTENIRFVFAAVKDTILQLNLKEYNLV
- x-fold maximum activity over basal (complex against the PLCβ3 variant alone): 3 x-fold
